Laboratory results: patent US5340925A, “Normal human growth regulatory receptor for TGF-β” (Oncogen, priority 1992, dated 1994)
Like-named read-outs stand apart in the source and are kept apart here.

How the values were obtained:
[1] = target: T1, HEPM cell-surface receptors for TGF-β (Homo sapiens, UniProt Q03167); experiment: Radioreceptor assay: [125I]-iodo-TGF-β1 in competition with unlabeled TGF-β1, Scatchard analysis; format: binding; conditions: for Kd: untreated HEPM cells, Scatchard two-site model
T1 construct: endogenous in cells; host or cells: HEPM (human embryonic palatal mesenchyme) cells, intact monolayers
T1 sequence (Q03167 21-851): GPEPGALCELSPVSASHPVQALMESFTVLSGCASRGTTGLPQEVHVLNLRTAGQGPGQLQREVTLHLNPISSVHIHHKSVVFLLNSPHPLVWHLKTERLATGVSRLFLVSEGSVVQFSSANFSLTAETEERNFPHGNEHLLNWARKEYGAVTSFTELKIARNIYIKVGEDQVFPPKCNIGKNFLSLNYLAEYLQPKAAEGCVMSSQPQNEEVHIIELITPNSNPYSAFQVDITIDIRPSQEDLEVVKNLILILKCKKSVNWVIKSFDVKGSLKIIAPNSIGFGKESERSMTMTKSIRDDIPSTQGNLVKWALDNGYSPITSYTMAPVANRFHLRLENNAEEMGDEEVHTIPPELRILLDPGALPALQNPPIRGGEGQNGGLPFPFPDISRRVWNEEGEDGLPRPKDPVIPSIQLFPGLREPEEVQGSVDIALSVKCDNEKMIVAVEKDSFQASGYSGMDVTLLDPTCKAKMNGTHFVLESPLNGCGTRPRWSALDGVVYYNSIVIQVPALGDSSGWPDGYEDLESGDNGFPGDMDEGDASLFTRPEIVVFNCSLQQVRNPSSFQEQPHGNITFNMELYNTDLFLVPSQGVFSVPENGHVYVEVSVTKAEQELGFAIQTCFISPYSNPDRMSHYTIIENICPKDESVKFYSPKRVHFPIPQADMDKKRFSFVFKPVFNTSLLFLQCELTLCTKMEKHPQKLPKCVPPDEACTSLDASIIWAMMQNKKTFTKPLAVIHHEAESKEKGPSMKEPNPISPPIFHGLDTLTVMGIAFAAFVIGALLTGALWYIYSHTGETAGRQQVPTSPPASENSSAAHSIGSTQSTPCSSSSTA
Experimental: HEPM cells were grown to confluence (1×10^5 cells/well) in 24-well Costar tissue culture plates. Prior to the binding assay, cells were pre-incubated in serum-free growth medium at 37° C. for 4 hours to allow for the dissociation of TGF-β from occupied cells surface receptors. The resulting monolayers were washed 2 times in binding buffer (Dulbecco's MEM+0.1% BSA+25 mM HEPES). 250 μl of binding buffer containing 0.5 μg/ml [^125 I]-iodoTGF-β1, (specific activity of 100 μCi/μg) together with increasing amounts of unlabeled TGF-β1 were added to duplicate wells. Steady state binding was carried out at 4° C. for 3 hours. After incubation cells were washed 3 times with cold binding buffer and solubilized in 200 μl of Triton solution (20 mM HEPES, 1% Triton X-100, 10% glycerol, 0.01% BSA, pH 7.4). Radioactivity was determined using a gamma spectrometer. Non-specific binding was determined in the presence of a 1,000-fold molar excess unlabeled TGF-β1.
The radioreceptor assay described in Materials and Methods was used to characterize the affinity and number of cell-surface receptors for TGF-β on HEPM cells. Specific binding of [^125 I]-iodo-TGF-βin these assays was 20% of the total radioligand present. […] Half-maximal displacement of radioligand occurred at 100 pM (2.6 ng/ml) unlabeled TGF-β1. Competitive binding data were plotted according to the method of Scatchard (Scatchard, et al., 1947, Ann. NY Acad Sci 51:660-672) and the results are presented in FIG. 5. A distinctly curvilinear isotherm was obtained indicating the presence of at least two classes of binding sites on HEPM cells. […] Quantitative analysis determined that HEPM cells contain a total of 287,000 TGF-β receptors per cell (55,400 high affinity and 231,600 low affinity sites).

HEPM cells = experiment: Growth stimulation in monolayer monitored by cell counting; format: cell-based, human; conditions: 50 pM TGF-β1, 96 hours post-treatment
Experimental: FIG. 2 Bioactivity of TGF-β on HEPM cells: cell proliferation. Cell counts were taken at 24 hour intervals until 120 hours post treatment. The data is presented as the number of cells per well vs incubation time (hours). By 96 hours, cultures treated with 50 pM TGF-β1, ( ) had reached a cell density twice that of untreated cultures ( ).
Alternatively, growth stimulation in monolayer was monitored by cell counting. Cell monolayers were washed with PBS and then treated with 100 μl 0.25% trypsin solution at 37° C. until cells became detached from the culture surface. Fetal bovine serum (100 μl) was then added to each well to inhibit further action by trypsin. The resulting cell suspension was counted by the standard hemacytometer method. The viability of cells, greater than 98% in these examples, was determined by trypan blue dye-exclusion.

With “TGF-β1: Transforming growth factor-Beta type 1; two identical disulfide linked subunits having molecular weights of 13,000; recombinant material used” the “half-maximal displacement of radioligand” value ([1]; unlabeled TGF-β1 vs [125I]-iodo-TGF-β1, 4° C., 3 hours) was 2.6 ng/mL, the IC50 ([1]; unlabeled TGF-β1 vs [125I]-iodo-TGF-β1, 4° C., 3 hours, read-out: half-maximal displacement of radioligand / half-maximal receptor occupancy) was 0.1 nM and the Kd ([1]; read-out: kd, high-affinity (low capacity) site) was 0.058 nM. For the same substance, the Kd ([1]; read-out: kd, low-affinity (high capacity) site) was 0.898 nM and the “cell density compared with untreated cultures” value (HEPM cells) was “twice”.
